Data on one molecule can be found in patent US12630850B2, “Enzymatic break down of chlorogenic acid in sunflower-containing products” (Chapman University, priority 2022, dated 2026).

Data set [1] in a line: Circular dichroism thermal and pH stability. Format: physicochemical. As to the method: Circular dichroism, dynamic light scattering and mass spectrometry. Circular dichroism (CD) spectra were taken on a Jasco J-1500 CD spectrophotometer. CGA esterase (0.2 mg mL^−1) was buffered in a solution of approximately 5 mM HEPES, pH 8.0. Spectra were recorded at 4° C. using the following settings: 100 nm min^−1 scan rate, 0.2 nm data pitch, 1.0 nm bandwidth, and 2 s integration time. Five acquisitions were averaged per experimental sample. […] The Tm was estimated by fitting a Boltzmann sigmoidal function to the denaturation curve. For CD spectra that were run at different pH, a concentrated CGA esterase stock solution was diluted to either 0.2 mg mL^−1 or 0.1 mg mL^−1 into solutions of 10 mM buffer at the pH indicated.
(CD spectra are sensitive to the conformation of chiral molecules.)

Data set [2] is described as follows: HPLC quantification of CGA in sunflower butter cookies. Format: biochemical. The note with it: SFB cookies; both levels, 1.72×10^−1 and 1.72×10^−2 mg/g butter. The text has this: (§1) Cookie formulations and baking conditions. The cookie dough formulation consisted of baking soda (2.2 g), salt (2.2 g), whole egg (46.8 g), maple syrup (76.3 g), vanilla extract (2.2 g), flour (145.8 g), and butter (87.5 g). CGA esterase treatments in SFF, utilized almond butter instead of SFB. The wet (sunflower or almond butter, maple syrup, eggs, and vanilla extract) and dry (flour, baking soda, and salt) ingredients were mixed separately and subsequently combined and mixed for 75 s with an electric hand mixer. The dough was rolled out and cut to the following dimensions: 6 mm thickness and 40 mm diameter. Cookies were baked for 7 min in a convection oven preheated to 149° C. (300° F.) and allowed to cool at room temperature for 10 min before further analysis.
Preparation of sunflower butter cookies with chlorogenic acid/CGA esterase. […]
(§2) High-performance liquid chromatography (HPLC) quantification of phenolic content in sunflower cookies. […] The extract was filtered through 0.20 μm syringe filters and analyzed with an Agilent 1260 Infinity II system (Agilent Technologies) equipped with a quaternary pump (G7111B), vial sampler (G7129A), and diode array detector (HS G7117C). […] CGA and caffeic acid concentrations were detected at 320 nm and quantified using a standard curve between 0.00-0.10 mg ml^−1 CGA (y=172287x, R^2=0.994) and caffeic acid (y=248557x, R^2=0.967).

Data set [3] is described as follows: HPLC quantification of CGA in sunflower flour cookies. The data set is classed as biochemical. The note with it: SFF cookies; 0.09 mg/g flour, pre- and direct treatment.
Description: as §1
Preparation of sunflower flour cookies with CGA esterase. […]
as §2

B1: CGA esterase: CGA esterase from L. helveticus (Genbank ID: WP_025283955.1, Uniprot ID: U6F2K7), expressed in Escherichia coli; the dimer is the active form (protein, listed as Lactobacillus helveticus)
chain: MSRITIERDGLTLVGDREEPFGEIYDMAIIMHGFAANRNTDLLRQIADDLRDENVASVRFDFNGHGESDGKFEDMTVCNEIADGKAILDYVRTDPHVRDIFLVGHSQGGVVASMLAGLYPDVVKKVVLLAPAAQLKDDALRSNTQGATYDPNHIPDWPLVGNKLGMKLGGFYLRTAQVLPIYEVSQCFTRPVSVIAGTNDQWDPKYAKKYDEVYENSELHMIPNADHRFSGGYKDMAADLTAQFLKPAF
Take B1: the Tm (in general, the temperature at which the thermal transition is half complete) in data set [1] (CD signal at 222 nm, thermal denaturation) is 65 °C. Besides, the “pH range over which the protein is stable (CD spectra)” value in data set [1] (room temperature (21° C.)) is given as 6.0-9.0 pH. In addition, the “Decrease of CGA concentration” value in data set [2] is listed as 90-95%. Besides, the “Effect of enzyme addition on CGA” value in data set [3] was “nearly complete elimination of CGA”.
